In the DeepSol protein solubility set:

Test: soluble on expression in E. coli; label from the status in PepcDB or PDB records

| Sequence | soluble on expression in E. coli |
| --- | --- |
| MNTGEMKINWVSRYMPLLNKIAEEYSREKPLSGFTVGMSIHLEAKTAYLAITLSKLGAKVVITGSNPLSTQDDVAEALRSKGITVYARRTHDESIYRENLMKVLDERPDFIIDDGGDLTVISHTEREEVLENLKGVSEETTTGVRRLKALEETGKLRVPVIAVNDSKMKYLFDNRYGTGQSTWDAIMRNTNLLVAGKNVVVAGYGWCGRGIALRAAGLGARVIVTEVDPVKAVEAIMDGFTVMPMKEAVKIADFVITASGNTDVLSKEDILSLKDGAVLANAGHFNVEIPVRVLEEIAVEKFEARPNVTGYTLENGKTVFLLAEGRLVNLAAGDGHPVEIMDLSFALQIFAVLYLLENHRKMSPKVYMLPDEIDERVARMKLDSLGVKIDELTEKQRRYLRSWQ | soluble |
| MGSDKIHHHHHHMVGCLTLTLLVGCSAAEKPVEQVKQVKNTLTAKLATEEKMIEIDGQTIYFKKIGNEKPPLLMIHGFGGSSDGFQKIYSDLAKNHTIISVDALGFGRSSKPMDFYYSFPTHANLYYKLMKKLGYDSFAILGHSMGGEISLNLTYLYPEAVTHLILTDATGGPHTLVNKQGSPRPQLSTDLNTVSAITDYDESKVKFKRNDEEHYNKMKLWPRRLQINADEIKQPTLIIWGRNDSSVSWEEGETYHQFFKNSTFHIIEKGYHAPFRQEPQEFVGYVKDFFDKNPIIAEK | not soluble |
| MASLATSISGSFRILVKSSSTRNGFPVISDQNPSFVLFANKRRHISRTAIFHRSAISGSSQGEKISPLASGVSSGLYSAQTFDLTPQNVDLVLEDVRPFLISDGGNVDVVSVEDGVVSLKLQGACTSCPSSSTTMTMGIERVLKEKFGDALKDIRQVFDEEVKQITVEVSEASF | not soluble |
| MGSDKIHHHHHHMAKVIKTKKGLALNLKGKPLPEMLAEPAQSPTYAVVPDDFEGVIPKVTARPGDKVRAGSALMHHKAYPEMKFTSPVSGEVIAVNRGAKRKVLSIEVKPDGLNEYESFPVGDPSALSAEQIKELLLSSGMWGFIKQRPYDIVATPDIAPRDIYITANFTAPLAPDFDFIVRGEERALQTAIDALAKLTTGKVYVGLKPGSSLGLHNAEIVEVHGPHPAGNVGVLINHTKPINRGETVWTLKATDLIVIGRFLLTGKADFTRMIAMTGSDAAAHGYVRIMPGCNVFASFPGRLTIKESHERVIDGNVLTGKKLCEKEPFLSARCDQITVIPEGDDVDELFGWAAPRLDQYSMSRAYFSWLQGKNKEYVLDARIKGGERAMIMSNEYDRVFPMDIYPEYLLKAIIAFDIDKMEDLGIYEVAPEDFATCEFVDTSKIELQRIVREGLDMLYKEMN | not soluble |
| MNQTAAFSEVEMSIVVPKESDIKDVSQLTSVQAPTKVDKNNIEILMSALKKDKKVDVKVDDVASYQEAYDNLKSGKSKAMVLSGSYASLLESVDSNFASNLKTIYTYKIKKKNSNSANPVDSKVFNIYISGIDTYGPISTVSRSDVNIIMTVNMNTHKILLTTTPRDAYVKIPGGGADQYDKLTHAGIYGVETSEQTLEDLYGIKIDYYARINFTSFLKLIDQLGGVTVHNDQAFTQGKFDFPVGDIQMNSEQALGFVRERYNLDGGDNDRGKNQEKVISAILNKLASLKSVSNFTSIVNNLQDSVQTNMSLDTINALANTQLDSGSKFTVTSQAVTGTGSTGQLISYAMPNSSLYMMKLDNSSVASASQAIKNLMEEKLEHHHHHH | soluble |
| MSLTSKNQFYKPGMLVPVFSAAGLLKNGRYQFLLQQIETLSLLPTEQYAQLYEALVYRFVEFVQVLPIRLDEPLCSLMNEGLLRGVNSLNHYIQNHPEATPLERYALFSAGLLLEVAHAVVNQKIFITDEEGNFIKQWNPFSGPLIDDVETKHYKIMPLSSYYQRNIPSITPILVRQLLPDEGFLWLTSDMRVFSDWMQALRDDEGEGGGRFEHVLQLFKHKNIDGLFNTLPALPVNLQDSPATAHADAFLNWLKEALATNQIKVNTSDAGVHVIPEGVFLEKTGIFKQYIDLHVNVPVNLFTVYQQFGNLFGLTKLSGIDYRFEQLFSEYPDALKRKSKMGFAGLIGIRRASPTREGVLIADPNLIFTRGEIPSATSYLKLSSAQKSQNIPMTEGHHHHHH | soluble |
| MELLCPAGNLASLKSALQAGADAVYLGLKDDTNARSFAGLNFTPAKLQEAAELTHQRGKKIFLTLNTFPKPNEEHRWYQAIDLAAKIGVDALIVADLSLLDYAHRQYPHIPLHLSVQASATNLGALSFYKEAFNVSRVVLPRVLSMKQVRDLAKVSPVDLEVFAFGSLCIMAEGRCHLSSYVTGQSPNTGGSCSPAKHVRWQEQGQDRLTWLNEVLIDKSGLDEQMGYPVVCKGRYLTQEDDKPQYLLESPTSLNTLSLLPELAKAGIVSLKIEGRQRSPAYVEQVTKVWRQAIDTYLNHPDKFQTQAHWEQALAKVSEGQITTLGAYERNWQ | not soluble |
| GPGSMTVVRAALLGFGTVGQGIYKIVQQRREQLKQKLGGAELVIVKILVRDLRKRSRVLPDGYASDAKLFTNNIEDVFRADVQVIFEATVGEEPAFTYLQRAIVEHGCSVITANKVMFARYGATLQELAASCTPTSSFPATRVYVGFEATVAAGVPIIKTLQNMCHVQQVRKIEGIVNGTSNYILTELREYPEKSFEEVLKKSQELGYAEADPTNDISGHDAFMKLLVMVAIAFGHQPSRSTVPVTGIDTLTPEMLQDARAKGLRYRHVVSAAMEGAATSSCALKSSAAEGEEAQPRTPPLHERLTCSVKPMLLGPEHPLYHMDGTTSAVSVWTDYLGVVTISGPGAGMYCTASAMMEDYAVWMEAFRRP | not soluble |
| VEQELATKMLQIQSKRFYLDVKQNRRGRFIKVAEIGADGRRSQIYLALSTAAEFRDHLSSFSDYYASLGPPNTDNLPEDGKLKSEMMIKDYRRYYLDLKENARGRFLRVSQTITRGGPRSQIALPAQGMIEFRDALTDLLEEFGAN | soluble |
| MAGDPNSMKFMSGKFCVLCGKQNVDLIDSLCVDCYVKSKKLIETPKRVTGKYCKICGAQWIRGKWIRTSATSLASVVEDIIARELGSKMRIDKNVDEFAFDIKSIWKDPSGNSFATIEFRGKVRGKSFSQEAVISLEMERELCDSCFRKKTRYYEAIVQLRSKGKIGVDDKKRAFFESFFSTSIVDNISDVIEGREGVDYYFMSKSVARKLVSMISSIVDVEVNESYQNEKMKNGKREAKLVISLRILEHHHHHH | not soluble |
| MNYIQLQRFNMSKVASIVDVLQGKVAIGETVTVRGWVRTRRDSKAGLSFLAVYDGSCFDPIQAIINNDIENYESEILRLTTGCSVIVTGKVVESPAEGQAVELQAEKVEVTGFVEDPDTYPMAAKRHSIEYLREVAHLRPRTNIIGAVARVRHCLSQAIHRFFHEQGFYWVATPLITASDTEGAGEMFRVSTLDLENLPRSENGKVDFSQDFFGKESFLTVSGQLNGETYACALSKIYTFGPTFRAENSNTTRHLAEFWMVEPEVAFATLADNAKLAEDMLKYVFRAVLAERKDDLQFFEKHVDKDVITRLENFVNSDFAQIDYTDAIDVLLKSGKKFEFPVSWGIDLSSEHERFLAEEYFKSPVVVKNYPKDIKAFYMRLNDDEKTVAAMDVLAPGIGEIIGGSQREERLEVLDKRMEEMGLNPDDYWWYRDLRKYGSVPHSGFGLGFERLIVYVTGVQNIRDVIPFPRAPRNANFLEHHHHHH | soluble |
| MKIKQALFTAGYSSFYFDDQQAIKNGAGHDGFIYTGDPVTPGFTSVRQAGECVSVQLILENGAVAVGDCAAVQYSGAGGRDPLFLAEHFIPFLNDHIKPLLEGRDVDAFLPNARFFDKLRIDGNLLHTAVRYGLSQALLDATALASGRLKTEVVCDEWQLPCVPEAIPLFGQSGDDRYIAVDKMILKGVDVLPHALINNVEEKLGFKGEKLREYVRWLSDRILSLRSSPRYHPTLHIDVYGTIGLIFDMDPVRCAEYIASLEKEAQGLPLYIEGPVDAGNKPDQIRMLTAITKELTRLGSGVKIVADEWCNTYQDIVDFTDAGSCHMVQIKTPDLGGIHNIVDAVLYCNKHGMEAYQGGTCNETEISARTCVHVALAARPMRMLIKPGMGFDEGLNIVFNEMNRTIALLQTKD | soluble |
| MSINGISGASPLVALQGPSASQRPEPVSSTDRAQAPAFSERLGSALEGLAKSQTEAAEKASAFERGEGGNLAEVMVSQQVSSLGFQLALNVRNKALGAYRDIMNMPV | not soluble |
